Key:
[1] = molecular target: T1, p72 (Cari)
T1 chain: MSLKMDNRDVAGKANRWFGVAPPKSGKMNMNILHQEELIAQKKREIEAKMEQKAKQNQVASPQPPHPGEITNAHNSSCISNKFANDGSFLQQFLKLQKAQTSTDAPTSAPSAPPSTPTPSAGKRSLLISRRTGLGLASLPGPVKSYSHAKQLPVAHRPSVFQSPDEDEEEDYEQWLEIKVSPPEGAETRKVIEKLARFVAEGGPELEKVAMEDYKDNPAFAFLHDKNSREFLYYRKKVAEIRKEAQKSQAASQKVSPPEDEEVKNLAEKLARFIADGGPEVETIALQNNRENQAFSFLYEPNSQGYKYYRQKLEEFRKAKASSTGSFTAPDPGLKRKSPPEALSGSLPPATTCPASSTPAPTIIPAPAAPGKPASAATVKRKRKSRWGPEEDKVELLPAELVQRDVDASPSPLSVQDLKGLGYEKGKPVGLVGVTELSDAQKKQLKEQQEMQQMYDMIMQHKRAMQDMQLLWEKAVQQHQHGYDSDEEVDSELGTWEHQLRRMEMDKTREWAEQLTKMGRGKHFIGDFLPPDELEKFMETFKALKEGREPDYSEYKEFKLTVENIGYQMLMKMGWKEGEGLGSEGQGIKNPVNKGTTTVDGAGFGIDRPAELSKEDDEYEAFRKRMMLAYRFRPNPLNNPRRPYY

[2] = molecular target: T2, p72 (1-600)
T2 chain: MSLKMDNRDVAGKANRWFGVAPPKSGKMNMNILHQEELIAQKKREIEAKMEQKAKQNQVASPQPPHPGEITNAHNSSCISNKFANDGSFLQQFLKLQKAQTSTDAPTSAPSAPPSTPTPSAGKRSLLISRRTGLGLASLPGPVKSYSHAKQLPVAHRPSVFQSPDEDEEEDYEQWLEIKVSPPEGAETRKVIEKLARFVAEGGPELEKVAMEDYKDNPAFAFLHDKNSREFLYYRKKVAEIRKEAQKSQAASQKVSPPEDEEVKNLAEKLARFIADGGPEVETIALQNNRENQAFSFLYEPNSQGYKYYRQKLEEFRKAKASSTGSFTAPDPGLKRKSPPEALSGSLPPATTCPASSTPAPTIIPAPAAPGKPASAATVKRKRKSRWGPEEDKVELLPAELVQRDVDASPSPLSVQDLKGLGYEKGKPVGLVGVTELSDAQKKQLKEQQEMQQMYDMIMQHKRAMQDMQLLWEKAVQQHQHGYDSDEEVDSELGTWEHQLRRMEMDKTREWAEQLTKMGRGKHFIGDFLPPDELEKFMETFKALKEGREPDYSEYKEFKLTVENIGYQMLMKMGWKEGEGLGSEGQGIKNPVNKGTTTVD

[3] = molecular target: T3, p72 (D600E)
T3 chain: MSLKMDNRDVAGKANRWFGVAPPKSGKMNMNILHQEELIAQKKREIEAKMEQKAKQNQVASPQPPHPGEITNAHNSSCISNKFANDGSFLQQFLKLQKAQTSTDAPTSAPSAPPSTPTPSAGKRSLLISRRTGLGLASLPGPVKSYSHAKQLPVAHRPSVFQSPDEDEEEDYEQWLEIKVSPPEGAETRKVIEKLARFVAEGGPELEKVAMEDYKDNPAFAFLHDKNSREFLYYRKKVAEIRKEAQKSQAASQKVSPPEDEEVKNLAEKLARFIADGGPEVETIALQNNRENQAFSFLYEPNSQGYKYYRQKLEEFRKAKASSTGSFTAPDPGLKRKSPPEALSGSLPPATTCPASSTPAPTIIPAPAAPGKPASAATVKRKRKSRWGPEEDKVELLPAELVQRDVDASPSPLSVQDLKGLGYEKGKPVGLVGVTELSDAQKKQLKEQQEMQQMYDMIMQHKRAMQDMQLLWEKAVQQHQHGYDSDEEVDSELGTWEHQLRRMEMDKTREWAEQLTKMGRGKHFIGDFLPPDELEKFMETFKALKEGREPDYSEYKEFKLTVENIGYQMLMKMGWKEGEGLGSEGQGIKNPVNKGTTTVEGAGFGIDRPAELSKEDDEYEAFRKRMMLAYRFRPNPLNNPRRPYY

B1: recombinant active caspase-8 (protein)
chain 1: EELCGVMTISDSPREQDSESQTLDKVYQMKSKPRGYCLIINNHNFAKAREKVPKLHSIRDRNGTHLDAGALTTTFEELHFEIKPHHDCTVEQIYEILKIYQLMDHSNMDCFICCILSHGDKGIIYGTDGQEAPIYELTSQFTGLKCPSLAGKPKVFFI
chain 2: GIPVETDSEEQPYLEMDLSSPQTRYIPDEADFLLGMATVNNCVSYRNPAEGTWYIQSLCQSLRERCPRGDDILTILTEVNYEVSNKDDKKNMGKQ
B1 was tested, and the “cleavage of in vitro translated 35S-labeled Cari by recombinant active caspase-8 (SDS-PAGE, phospho-imaging)” value [1] was “This band disappears after addition of activated caspase-8 for 1 hour and a new smaller fragment corresponding to 68 kDa appears (lane 4)”, the “cleavage of in vitro translated 35S-labeled Cari 1-600 by recombinant active caspase-8 (SDS-PAGE, phospho-imaging)” value [2] was “co-migrates with the 68 kDa fragment produced after cleavage of the wild type Cari and is not further cleaved by addition of caspase-8” and the “cleavage of in vitro translated 35S-labeled Cari D600E by recombinant active caspase-8 (SDS-PAGE, phospho-imaging)” value [3] was “the same protein profile of Cari D600E mutant is observed in the presence or the absence of caspase-8”.
